Measured values published in patent publication US20060246004A1 (Genentech, published 2006).
One block for each molecule: values may come before it.

Tests used:
human FcRn (human) [1] = target: human FcRn (human) (UniProt P55899); assay: BIAcore, FcRn immobilised, pH 6.0
human FcRn (human) [2] = target: human FcRn (human) (UniProt P55899); assay: BIAcore equilibrium analysis, FcRn immobilised on CM5 chip, pH 6.0
rat FcRn (rat) = rat FcRn (rat) (UniProt P13599); assay: BIAcore, FcRn immobilised
[3] = target: T1, human CD20 on WIL2-S cells (human, UniProt P11836 1-297); assay: cell-based ELISA, WIL2-S cells; conc. 2H7.v16 / conc. variant
T1 construct: whole, on cells; also called CD20 antigen; hCD20
T1 sequence (looked up): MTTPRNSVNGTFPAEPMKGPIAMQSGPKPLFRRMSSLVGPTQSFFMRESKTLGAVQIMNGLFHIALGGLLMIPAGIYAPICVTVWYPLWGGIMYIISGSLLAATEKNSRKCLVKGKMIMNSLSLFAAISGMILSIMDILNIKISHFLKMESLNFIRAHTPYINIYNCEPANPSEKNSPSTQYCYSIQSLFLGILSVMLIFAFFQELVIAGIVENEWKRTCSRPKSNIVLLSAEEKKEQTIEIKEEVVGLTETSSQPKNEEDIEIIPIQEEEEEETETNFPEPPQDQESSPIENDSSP
Method: To measure relative binding affinities to the CD20 antigen, a cell-based ELISA assay was developed. […] The cells were washed with PBS containing 1% FBS (assay buffer) and seeded at 250-300,000 cell/well in 96-well round bottom plates (Nunc, Roskilde, Denmark). […] The plates were buried in ice and incubated for 45 min. To remove the unbound antibody, 0.1 mL assay buffer were added to the wells. Plates were centrifuged and supernatants were removed. Cells were washed two more times with 0.2 mL assay buffer. Antibody bound to the plates was detected by adding peroxidase conjugated goat anti-human Fc antibody (Jackson ImmunoResearch, West Grove, Pa.) to the plates. After a 45 min incubation, cells were washed as described before. TMB substrate (3,3′,5,5′-tetramethyl benzidine; Kirkegaard & Perry Laboratories, Gaithersburg, Md.) was added to the plates. The reaction was stopped by adding 1 M phosphoric acid. Titration curves were fit with a four-parameter nonlinear regression curve-fitting program (KaleidaGraph, Synergy software, Reading, Pa.). The absorbance at the midpoint of the titration curve (mid-OD) and its corresponding concentration of the standard were determined. Then the concentration of each variant at this mid-OD was determined, and the concentration of the standard was divided by that of each variant.

[4] = target: T1, human CD20 on WIL2-S cells; assay: competitive Scatchard analysis, WIL2-S cells; labelled competitor 125I-2H7.v138; ± standard error of fit
Method: (§1) All dilutions were performed in binding assay buffer (DMEM media containing 0.5% bovine serum albumin, 25 mM HEPES pH 7.2, and 0.01% sodium azide). […] Serial dilutions (0.05 mL) of unlabelled antibody were added and mixed. 30,000 WIL2-S cells in a volume of 0.05 mL was added to each well. The plates were sealed and incubated at room temperature for 24 h, then centrifuged for 15 min at 2,500 RPM. The supernatant was then aspirated and the cell pellets were washed and centrifuged. The supernatant was again aspirated, and the pellets were dissolved in 1N NaOH and transferred to tubes for gamma counting.

soluble CD20 (Genentech) = target: T2, soluble CD20 (Genentech) (UniProt P11836 1-297, limits assumed); assay: ELISA on plate-coated soluble CD20, bound IgG detected with HRP anti-human Fab, OD450
T2 construct: Coated on ELISA plates; also called solubilized CD20
T2 sequence (looked up): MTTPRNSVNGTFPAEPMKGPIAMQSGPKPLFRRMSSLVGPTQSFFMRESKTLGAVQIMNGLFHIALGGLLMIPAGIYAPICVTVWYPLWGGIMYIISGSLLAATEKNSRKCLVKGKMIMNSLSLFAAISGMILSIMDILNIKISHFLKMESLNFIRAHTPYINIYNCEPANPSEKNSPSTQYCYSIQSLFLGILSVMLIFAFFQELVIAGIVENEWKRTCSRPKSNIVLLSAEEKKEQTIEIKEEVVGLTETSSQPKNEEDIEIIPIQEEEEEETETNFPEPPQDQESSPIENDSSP
Method: As an additional comparison of the binding activity of 2H7 variants, an ELISA was performed with solubilized CD20.
Serial dilutions of samples in 0.5% BSA were incubated on the plates for 2 h. After washing, bound antibodies were detected with HRP-conjugated anti-human Fab antibody (Goat anti-human Ig, Fab′2-HRP conjugate, from NB) using 3,3′,5,5′-tetramethyl benzidine (Kirkegaard and Perry Laboratories, Gaithersburg, Md.) as substrate. Absorbance was read at 450 nm. Titration curves were fit with a four-parameter nonlinear regression curve-fitting program (KaleidaGraph; Synergy Software, Reading, Pa.). Concentrations of antibody variants corresponding to the midpoint absorbance of the titration curve of the standard were calculated.

[5] = target: T1, human CD20 on WIL2-S cells; assay: competitive Scatchard analysis, WIL2-S cells; labelled 125I-2H7.v511; ± standard error of fit
Method: as §1

Chain of rat FcRn (rat) (P13599 23-298 limits assumed): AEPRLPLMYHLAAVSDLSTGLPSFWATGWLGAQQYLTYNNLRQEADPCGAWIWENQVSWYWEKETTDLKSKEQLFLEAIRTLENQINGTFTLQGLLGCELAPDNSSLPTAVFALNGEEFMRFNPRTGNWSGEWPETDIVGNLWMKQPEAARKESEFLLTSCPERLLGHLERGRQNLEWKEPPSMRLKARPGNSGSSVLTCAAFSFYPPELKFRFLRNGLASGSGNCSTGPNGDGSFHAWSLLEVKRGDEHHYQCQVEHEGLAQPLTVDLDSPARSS

Molecule: soluble Fc variant N434A
- fold increase in affinity over wild-type Fc (human FcRn (human) [1]): 2.7 fold

Molecule: parental hingeless Fc (wild-type)
- Kd (human FcRn (human) [2]): 700 nM

B2: humanized 2H7.v511 (antibody, human IgG1, kappa)
heavy: EVQLVESGGGLVQPGGSLRLSCAASGYTFTSYNMHWVRQAPGKGLEWVGAIYPGNGATSYNQKFKGRFTISVDKSKNTLYLQMNSLRAEDTAVYYCARVVYYSYRYWYFDVWGQGTLVTVSSASTKGPSVFPLAPSSKSTSGGTAALGCLVKDYFPEPVTVSWNSGALTSGVHTFPAVLQSSGLYSLSSVVTVPSSSLGTQTYICNVNHKPSNTKVDKKVEPKSCDKTHTCPPCPAPELLGGPSVFLFPPKPKDTLMISRTPEVTCVVVDVSHEDPEVKFNWYVDGVEVHNAKTKPREEQYNATYRVVSVLTVLHQDWLNGKEYKCKVSNAALPAPIAATISKAKGQPREPQVYTLPPSREEMTKNQVSLTCLVKGFYPSDIAVEWESNGQPENNYKTTPPVLDSDGSFFLYSKLTVDKSRWQQGNVFSCSVMHEALHNHYTQKSLSLSPGK
light: DIQMTQSPSSLSASVGDRVTITCRASSSVSYLHWYQQKPGKAPKPLIYAPSNLASGVPSRFSGSGSGTDFTLTISSLQPEDFATYYCQQWAFNPPTFGQGTKVEIKRTVAAPSVFIFPPSDEQLKSGTASVVCLLNNFYPREAKVQWKVDNALQSGNSQESVTEQDSKDSTYSLSSTLTLSKADYEKHKVYACEVTHQGLSSPVTKSFNRGEC
notes: Full-length IgG1; VH D56A, N100Y, S100aR; VL M32L, S92A; Fc S298A, K326A, E333A, K334A vs v16; also called hu2H7.v511
- Kd [4]: 0.11 nM
- EC50 (read off the curve) (soluble CD20 (Genentech)): ~0.02 µg/mL
- Kd [5]: 0.45 nM

Second part, the molecule after the results:

- fold increase in affinity over wild-type Fc (human FcRn (human) [1]): 9 fold
Molecule: soluble Fc variant N434F

- fold increase in affinity over wild-type Fc (human FcRn (human) [1]): 170 fold
- Kd (human FcRn (human) [2]): 4 nM
- fold better binding relative to wild-type Fc (rat FcRn (rat)): 10 fold
Molecule: soluble Fc variant N434W

- fold increase in affinity over wild-type Fc (human FcRn (human) [1]): 14 fold
Molecule: soluble Fc variant N434A+E380A+T307A

- Relative binding [3]: 0.99 ratio
B1: humanized 2H7.v166 (antibody, human IgG1, kappa, V domains shown)
VH: EVQLVESGGGLVQPGGSLRLSCAASGYTFTSYNMHWVRQAPGKGLEWVGAIYPGNGDTSYNQKFKGRFTISVDKSKNTLYLQMNSLRAEDTAVYYCARVVYYGGDWYFDVWGQGTLVTVSS
VL: DIQMTQSPSSLSASVGDRVTITCRASSSVSYMHWYQQKPGKAPKPLIYAPSNLASGVPSRFSGSGSGTDFTLTISSLQPEDFATYYCQQWSFNPPTFGQGTKVEIKR
notes: IgG1; changes vs v16
